Experimental data as given in the supplement of paper PMC12764529.
± gives the half width of the 95% confidence interval.

Key:
[1] = folding stability dG unfold from trypsin proteolysis; higher = more stable
In short: (§1)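 How resistant each design was to proteolysis was captured as K50, inferred by Bayesian fitting of sequencing counts. Unfolding free energy was then derived relative to a sequence-predicted unfolded-state K50 and a shared folded-state K50, per protease or combined. Digestion used trypsin and chymotrypsin at 11 threefold-diluted concentrations plus a no-protease condition, on mini-proteins under 80 residues without cysteine in a PA-tagged cDNA display construct. Designs were kept only when AlphaFold2 dimer inter-PAE was above 15.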

[2] = folding stability dG unfold from chymotrypsin proteolysis; higher = more stable
In short: as §1

[3] = folding stability dG unfold (combined trypsin and chymotrypsin); higher = more stable
In short: as §1

Sequence | folding stability dG unfold [1] | folding stability dG unfold [2] | folding stability dG unfold [3]
SAGGSAGGSAGSTILIKNEDGSLLLVTVSDGSITIERLPPAPPPKTYEKDPETKEWREVTSAGGSAGGSAGG [r11_590_TrROS_Hall] | 4.42 ± 0.0879 kJ/mol | 2.71 ± 0.264 kJ/mol | 3.67 ± 0.238 kJ/mol
SAGGSAGGSAGSTITIRINGKTYTIEVDESEEEALERIRELARALLPEGEVEVTVERREPSAGGSAGGSAGG [r11_1028_TrROS_Hall] | 9.21 ± 0.197 kJ/mol | 14.12 ± 0.109 kJ/mol | 12.5 ± 0.331 kJ/mol
SAGGSAGGSAGSTLTVTLTVRDPANPGTTTTVTLTLEVEPAPPPEVVVVKDANGNETLVPSAGGSAGGSAGG [r11_419_TrROS_Hall] | 5.41 ± 0.197 kJ/mol | 7.97 ± 0.218 kJ/mol | 6.83 ± 0.255 kJ/mol
SAGGSAGGSAGSYTVEPVELDDDSTLIRYTYPTDPNAVFPVVTVYPDGPVLTEPVVYSSSSAGGSAGGSAGG [r11_747_JUSTAS] | 1.13 ± 0.155 kJ/mol | 0.158 ± 0.46 kJ/mol | 1.02 ± 0.381 kJ/mol
SAGGSAGGSAGTATLTDPNGVRIEVFPDGTVRATVYRPDPSTGEWKLAATFTFPLHPDAFSAGGSAGGSAGG [r11_497_TrMRF] | 7.2 ± 0.113 kJ/mol | 8.39 ± 0.28 kJ/mol | 8.11 ± 0.276 kJ/mol
SAGGSAGGSAGTIENVTVVGSKEFTAPGGVPTLIEYAKLPDGGTYTVTWTGDTTTTTVFPSAGGSAGGSAGG [r17_294_JUSTAS] | 1.73 ± 0.0879 kJ/mol | 2.82 ± 0.586 kJ/mol | 2.61 ± 0.289 kJ/mol
SAGGSAGGSAGTIPLDNIKEVELEYDPNSGYYEHRIEFPNGRRLVIRFPPSDNVEIQWLDSAGGSAGGSAGG [r17_182_TrROS] | 4.55 ± 0.105 kJ/mol | 5.58 ± 0.259 kJ/mol | 5.47 ± 0.385 kJ/mol
SAGGSAGGSAGTIRIKTKDGKTIEIELEGLSDEELENPEVLAEIKKALEDAGFEIVEVEPSAGGSAGGSAGG [r11_467_TrROS_Hall] | 9.15 ± 0.255 kJ/mol | 8.55 ± 0.226 kJ/mol | 8.76 ± 0.326 kJ/mol
SAGGSAGGSAGTLRLEVELKLRVRNPATREWQEVTLRLEVEFEPAPPVLVRDANGRLLLLSAGGSAGGSAGG [r11_307_TrROS_Hall] | 7.04 ± 0.1 kJ/mol | 14.37 ± 0.0879 kJ/mol | 12.5 ± 0.343 kJ/mol
SAGGSAGGSAGTLTFTFDGVTVEVRLVDGYLVIRVTTEVEVNGKKYKVTLELVIKLPEGLSAGGSAGGSAGG [r11_879_TrROS_Hall] | 18.8 ± 1.72 kJ/mol | 22.6 ± 1.17 kJ/mol | 23 ± 1.17 kJ/mol
SAGGSAGGSAGTRTITIFIPVPPGKMTPEDALDFIKPFFPDVKIEVEPVNNYYAIEITVKSAGGSAGGSAGG [r11_7_TrROS] | 4.88 ± 0.234 kJ/mol | 3.45 ± 0.188 kJ/mol | 4.36 ± 0.628 kJ/mol
SAGGSAGGSAGTSIKEAKIKLPSNGKTYKAIVTTHPNGKKYVYIPETGKVYELNNLIIEPSAGGSAGGSAGG [r11_301_TrMRF] | 5.85 ± 0.197 kJ/mol | 9.7 ± 0.23 kJ/mol | 8.47 ± 0.247 kJ/mol
SAGGSAGGSAGVEEIAKILQELGFEVEVEPVPDGMRTIEVQNKNGKKITIRITADGKIEISAGGSAGGSAGG [r17_503_TrROS] | 7.95 ± 0.126 kJ/mol | 9.22 ± 0.586 kJ/mol | 8.76 ± 0.46 kJ/mol
SAGGSAGGSAGVIDKENDRWYITQETPGGEPKTIPIPWDDIPDLPPENVKEVELMPPDDISAGGSAGGSAGG [r11_779_TrROS] | -0.747 ± 0.13 kJ/mol | -0.0232 ± 0.234 kJ/mol | -0.01 ± 0.418 kJ/mol
SAGGSAGGSAGVKEGEEIEITLENGKTFTAKIEYDKETGYYKITIKDKKTNKEYEFVFKVSAGGSAGGSAGG [r11_960_TrROS_Hall] | 10.9 ± 1.26 kJ/mol | 18.4 ± 0.711 kJ/mol | 16.9 ± 0.92 kJ/mol
SAGGSAGGSAGVLSLEGVVSTEEFEDPSSSNKTLVITLPGGERVVVNLPSSPSSVVTRLVSAGGSAGGSAGG [r17_182_JUSTAS] | 0.9 ± 0.117 kJ/mol | 1.95 ± 0.276 kJ/mol | 1.77 ± 0.31 kJ/mol
SAGGSAGGSAGVNPNLPNYSVVPTTVTVKVLETFTDPQGNSYTREFTLEVETLIVNPPLLSAGGSAGGSAGG [r17_523_JUSTAS] | 12.1 ± 0.502 kJ/mol | 16.4 ± 0.351 kJ/mol | 15 ± 0.502 kJ/mol
SAGGSAGGSAGVSPNEDVKVEVLEVKPDPETGTYTVLVKDPRTGEERTLTLTPEELAKLLSAGGSAGGSAGG [r11_894_JUSTAS] | 18.5 ± 0.795 kJ/mol | 19 ± 0.305 kJ/mol | 19.1 ± 0.331 kJ/mol
